Test [1] has as its target T1, Pin1 (Homo sapiens, UniProt Q13526).
T1 construct: fusion protein containing full length Pin1 was bacterially expressed, purified; made in house
The test is described as follows: Precipitation with GST-Pin1 beads of synthesized phosphoproteins incubated with interphase and mitotic Xenopus extracts. It counts as binding. Details: key: +: a week but above background interaction; ++: readily detectable interaction; +++: strong interaction. As to conditions: for Interaction with Pin1, Mitotic: mitotic Xenopus extracts. The method, then: The binding between Pin1 and all selected mitotic phosphoproteins was assayed by incubating synthesized proteins with interphase and mitotic Xenopus extracts, followed by precipitation with GST-Pin1beads. The Pin1 interactions with those proteins indicated with * were also confirmed by GST-Pin1 pull-down assay from endogenous interphase and mitotic HeLa cell extracts. +, a week but above background interaction; ++, readily detectable interaction; +++, strong interaction.
The mitotic phosphoproteins were translated in vitro using the TNT coupled transcription/translation kit (Promega) in a total volume of 10 μl in the presence of 8 μCi [^35S]methionine (1000 Ci/mmol) for 2 h at 30° C. They were then incubated in xenopus interphase and mitotic extracts as described (Stukenberg et al., 1997). These incubated clones were precipitated by Pin1 beads as described below. The Xenopus Mos and Weel clones were a kind gift of M. Murakami, G, F. Woude and J. Cooper; the Xenopus Cdc25 clone was a generous gift of W. Dunphy, T3 and T3S2 Cdc25 mutants were kindly provided by J. Maller (Izumi and Maller, 1993).
To detect Pin1-binding proteins, either HeLa cells were lysed in or Xenopus extracts were diluted in a buffer (buffer A) containing 50 mM Tris-HCl, pH 8.0, 200 mM NaCl, 100 mM NaF, 1 mM sodium orthovanadate, 10% glycerol, 1% Triton X100, 10 μg/ml aprotinin, 50 μg/ml phenylmethylsulfonyl fluoride and 1 mM DTT. The lysates were preclarified with boiled S. aureus bacteria (CalBiochem) and then incubated with 10 μl of agarose beads containing various GST-Pin1 proteins or control GST for 2 h at 4° C. The precipitated proteins were washed 5 times in the same buffer and subjected to immunoblotting analysis. Immunoprecipitation and immunoblotting analysis using MPM-2 antibody (Davis et al. 1983), which was kindly provided by J. Kuang, Pin1 antibodies (Lu et al., 1996, kindly provided by M. White or newly generated), anti-phospho.Tyr antibody (UBI), anti-Cdc25C (Ogg, et al., 1994) (from H. Piwnica-Worms and Santa Cruz Biotechnology), anti-Cdc27, anti-Plk1 (Zymed), anti-Cdc2 (Solomon, M. J., M. Glotzer, T. H. Lee, M. Philippe and M. W. Kirschner. Cell 63:1013-1024 (1991), anti-human Myt1, anti-human cyclin B1 and anti-Xenopus cyclin B were performed, as described previously in Lu and Hunter, 1995; Lu et al., 1996).
To gain a sense of the generality of the interaction between Pin1 and mitotic phosphoproteins and to confirm the Pin1 interaction with target proteins is indeed mediated by phosphorylation, the ability of Pin1 to bind other known mitotic phosphoproteins and a set of mitotic phosphoproteins identified by a systematic phosphoprotein screen (Stukenberg et al., Curr Biol 7:338-348 (1997). Proteins synthesized in vitro were phosphorylated in a cell cycle specific manner by incubating them in either Xenopus interphace or mitotic extracts. These labeled protein were subsequently incubated with GST-Pin1 beads that were extensively washed and the bound proteins analyzed by SDS-PAGE. To validate this method, Cdc25 was first tested. Again, the mitotically phosphorylated form of in vitro translated Cdc25 could be precipitated by GST-Pin1 beads. However, Cdc25 was not recognized by Pin1 if it was incubated in interphase extracts. […] Out of the 13 mitotic phosphoproteins examined, Pin1 bound 10 in a mitosis and phosphorylation-dependent manner (summarized in Table 1), including Weel, MP75 and MP110, MP75 and MP110 are Xenopus proteins related to microtubule-associated protein E-MAP-115 and the fission yeast G2 transcription factor Cdc5, respectively.

Test [2] concerns the target T1, Pin1. Put plainly: Confirmation of interaction between Pin1 and predicted Pin1 substrates. As to conditions: Pin1 binding confirmed in vitro (SC35 inferred from colocalization). As for the experimental part: On the basis of amino acid preferences deduced in the 6 positions surrounding the pS-P motif for optimal Pin1 binding, a weighted screening of the SWISS-PROT sequence database. Protein sequence database screening was performed with the program INDOVINATOR, using an entropy-based weighing technique to score for relative information content at each amino acid position flanking the pS/pT-P motif with the quantitative peptide library results, which are shown qualitatively in Table 3. […] Many of these proteins are involved in regulation of the cell cycle, cytoskeletal/spindle structure, DNA replication, transcription or RNA processing (Table 4).
Several of these predicted proteins, such as Rab4, Cdc25 and NIMA, undergo mitosis-specific phosphorylation (R. Heald and F. McKeon, Cell 61:579 (1990); E. Bailly, et al., Nature 350:715 (1991); A. Blangy, et al., Cell 83:1159 (1995): J. Kuang, et al., Mol. Biol. Cell 5:135 (1994); X. S. Ye, et al., EMBO J. 14:986 (1995)). Cdc25 and NIMA also binds to Pin1 in a phosphorylation-dependent manner, as described herein. Other proteins identified in this search, however, had not been previously suspected of interacting with Pin1; therefore, a few were further investigated as example cases. […] Thus, Pin1 binds a wide functional range of mitotic phosphoproteins.

T1 sequence (Q13526 whole entry, the tested form may be a part): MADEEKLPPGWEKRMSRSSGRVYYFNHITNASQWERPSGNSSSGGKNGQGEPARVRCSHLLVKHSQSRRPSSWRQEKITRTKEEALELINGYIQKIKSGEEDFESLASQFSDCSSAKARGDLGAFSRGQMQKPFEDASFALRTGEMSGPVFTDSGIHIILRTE

B1: Cdc25: mitotic phosphoprotein, phosphatase; Xenopus Cdc25 clone translated in vitro (protein)
chain: STELFSSTREEGSSGSGPSFRSNQRKMLNLLLERDTSFTVCPDVPRTPVGKFLGDSANLSILSGGTPKRCLDLSNLSSGEITATQLTTSADLDETGHLDSSGLQEVHLAGMNHDQHLMKCSPAQLLCSTPNGLDRGHRKRDAMCSSSANKENDNGNLVDSEMKYLGSPITTVPKLDKNPNLGEDQAEEISDELMEFSLKDQEAKVSRSGLYRSPSMPENLNRPRLKQVEKFKDNTIPDKVKKKYFSGQGKLRKGLCLKKTVSLCDITITQMLEEDSNQGHLIGDFSKVCALPTVSGKHQDLKYVNPETVAALLSGKFQGLIEKFYVIDCRYPYEYLGGHIQGALNLYSQEELFNFFLKKPIVPLDTQKRIIIVFHCEFSSERGPRMCRCLREEDRSLNQYPALYYPELYILKGGYRDFFPEYMELCEPQSYCPMHHQDHKTELLRCRSQSKVQEGERQLREQIALLVKDMSP
On to B1, for which the “Interaction with Pin1, Mitotic” value in test [1] is on record as “+++”.

B2: E-MAP-115: cytoskeletal/spindle protein, predicted Pin1 substrate (protein, UniProt Q14244 2-749, looked up)
Ensconsin: AELGAGGDGHRGGDGAVRSETAPDSYKVQDKKNASSRPASAISGQNNNHSGNKPDPPPVLRVDDRQRLARERREEREKQLAAREIVWLEREERARQHYEKHLEERKKRLEEQRQKEERRRAAVEEKRRQRLEEDKERHEAVVRRTMERSQKPKQKHNRWSWGGSLHGSPSIHSADPDRRSVSTMNLSKYVDPVISKRLSSSSATLLNSPDRARRLQLSPWESSVVNRLLTPTHSFLARSKSTAALSGEAASCSPIIMPYKAAHSRNSMDRPKLFVTPPEGSSRRRIIHGTASYKKERERENVLFLTSGTRRAVSPSNPKARQPARSRLWLPSKSLPHLPGTPRPTSSLPPGSVKAAPAQVRPPSPGNIRPVKREVKVEPEKKDPEKEPQKVANEPSLKGRAPLVKVEEATVEERTPAEPEVGPAAPAMAPAPASAPAPASAPAPAPVPTPAMVSAPSSTVNASASVKTSAGTTDPEEATRLLAEKRRLAREQREKEERERREQEELERQKREELAQRVAEERTTRREEESRRLEAEQAREKEEQLQRQAEERALREREEAERAQRQKEEEARVREEAERVRQEREKHFQREEQERLERKKRLEEIMKRTRRTEATDKKTSDQRNGDIAKGALTGGTEVSALPCTTNAPGNGKPVGSPHVVTSHQSKVTVESTPDLEKQPNENGVSVQNENFEEIINLPIGSKPSRLDVTNSESPEIPLNPILAFDDEGTLGPLPQVDGVQTQQTAEVI
As for B2, the “Binding Confirmed” value in test [2] is given as “Yes”.

B3: NIMA: mitotic phosphoprotein, kinase (protein)
chain: MAIALAEADKYEVLEKIGCGSFGIIRKVKRKSDGFILCRKEINYIKMSTKEREQLTAEFNILSSLRHPNIVAYYHREHLKASQDLYLYMEYCGGGDLSMVIKNLKRTNKYAEEDFVWRILSQLVTALYRCHYGTDPAEVGSNLLGPAPKPSGLKGKQAQMTILHRDLKPENIFLGSDNTVKLGDFGLSKLMHSHDFASTYVGTPFYMSPEICAAEKYTLRSDIWAVGCIMYELCQREPPFNARTHIQLVQKIREGKFAPLPDFYSSELKNVIASCLRVNPDHRPDTATLINTPVIRLMRREVELNNLSRAARKREEATMQKAKDVEQAFAKLEKEKQQIRSELENSIRREWEVKARLEIDRQVQNELDKLRKRFECEVQDRVAQEVEKQRRNANYREDASLRSSGHSSQMSSSNSEDSDFPSSTDISQLSLESPTNKAAKLPKKESRTPFTRSKTVVDSPMDIQMAEPSPISIASLSLSPRRTSATYSGKNIFAEGERKRPKFEPTLAYSDDEDDTPELPSPTRPKVKPDPFKAPSRPLLRQNTTALMQKLSTQPPIFPANPSRLPQMSAPDVRESKSRSPHRRLSKIPSSANLAADAGSPTRKNGVKSSPSKMNGGDEMFKAVMQRNMGGRTLVELAQARAGGRPIDEVKRCASDSRSGCSVPMKSADRDPPAVWDPERDEMPSPFLARGRKVIRNLR
On to B3, for which the “Interaction with Pin1, Mitotic” value in test [1] is recorded as “+++”. Besides, the “Binding Confirmed” value in test [2] was “Yes”.

B4: Splicing factor SC35: nuclear/splicing protein, predicted Pin1 substrate (protein, UniProt Q01130 2-221, looked up)
Serine/arginine-rich splicing …: SYGRPPPDVEGMTSLKVDNLTYRTSPDTLRRVFEKYGRVGDVYIPRDRYTKESRGFAFVRFHDKRDAEDAMDAMDGAVLDGRELRVQMARYGRPPDSHHSRRGPPPRRYGGGGYGRRSRSPRRRRRSRSRSRSRSRSRSRSRYSRSKSRSRTRSRSRSTSKSRSARRSKSKSSSVSRSRSRSRSRSRSRSPPPVSKRESKSRSRSKSPPKSPEEEGAVSS
Take B4: the “Binding Confirmed” value in test [2] was “Yes”.

B5: Plx1: mitotic phosphoprotein (protein)
chain: MAQVAGKKLTVAPEAAKPPGIPGSSSAVKEIPEILVDPRTRRRYLRGRFLGKGGFAKCYEITDLESREVFAGKIVPKTMLLKPHQKDKMTMEIAIQRSLDHRHVVGFHGFFEDNDFVYVVLELCRRRSLLELHKRRKAVTEPEARYYLKQTISGCQYLHSNRVIHRDLKLGNLFLNDEMEVKIGDFGLATKVEYDGERKKTLCGTPNYIAPEVLGKKGHSFEVDIWSIGCIMYTLLVGKPPFETSCLKETYMRIKKNEYSIPKHINPVAAALIQKMLRSDPTSRPTIDDLLNDEFFTSGYIPSRLPTTCLTVPPRFSIAPSTIDQSLRKPLTAINKGQDSPLVEKQVAPAKEEEMQQPEFTEPADCYLSEMLQQLTCLNAVKPSERALIRQEEAEDPASIPIFWISKWVDYSDKYGLGYQLCDNSVGVLFNDSTRLIMYNDGDSLQYIERNNTESYLNVRSYPTTLTKKITLLKYFRNYMSEHLLKAGANTTPREGDELARLPFLRTWFRTRSAIILHLSNGTVQINFFQDHTKIILCPLMAAVSYIDEKREFRTYKLSLIQEFGCCKELASRLRYARTMVEKLQSSKSAVAHVKASA
Take B5: the “Interaction with Pin1, Mitotic” value in test [1] is “+++”.

B6: Mos: mitotic phosphoprotein, Xenopus Mos clone (protein)
chain: MPSPIPVERFLPRDLSPSIDLRPCSSPLELSHRKLPGGLPACSGRPRLLPPRLAWCSIDWEQVLLLEPLGSGGFGSVYRATYRGETVALKKVKRSTKNSLASRQSFWAELNAARLRHPHVVRVVAASASCPGDPGCPGTIIMEYTGTGTLHQRIYGRSPPLGAEICMRYARHVADGLRFLHRDGVVHLDLKPANVLLAPGDLCKIGDFGCSQRLREGDEAAGGEPCCTQLRHVGGTYTHRAPELLKGEPVTAKADIYSFAITLWQMVSRELPYTGDRQCVLYAVVAYDLRPEMGPLFSHTEEGRAARTIVQSCWAARPQERPNAEQLLERLEQECAMCTGGPPSCSPESNAPPPLGTGL
Consider B6, for which the “Interaction with Pin1, Interphase” value in test [1] (interphase Xenopus extracts) was “+”. In addition, in test [1], the “Interaction with Pin1, Mitotic” value was “++”.

Values taken from patent US6462173B1, “Inhibitors of phosphoserine and phosphothreonine-proline-specific isomerases” (Max-Planck-Gesellschaft zur Forderung der, priority 1997, dated 2002).
